Laboratory results as given in patent US20190077860A1 (EISAI R AND D MANAGEMENT, published 2019).
Substitutions are numbered along the chain they refer to.

T1: human EphB2 extracellular region-SEAP-His protein (human, UniProt P29323 19-543)
T1 construct: extracellular domain; also called hEphB2-SEAP-His
T1 sequence (looked up): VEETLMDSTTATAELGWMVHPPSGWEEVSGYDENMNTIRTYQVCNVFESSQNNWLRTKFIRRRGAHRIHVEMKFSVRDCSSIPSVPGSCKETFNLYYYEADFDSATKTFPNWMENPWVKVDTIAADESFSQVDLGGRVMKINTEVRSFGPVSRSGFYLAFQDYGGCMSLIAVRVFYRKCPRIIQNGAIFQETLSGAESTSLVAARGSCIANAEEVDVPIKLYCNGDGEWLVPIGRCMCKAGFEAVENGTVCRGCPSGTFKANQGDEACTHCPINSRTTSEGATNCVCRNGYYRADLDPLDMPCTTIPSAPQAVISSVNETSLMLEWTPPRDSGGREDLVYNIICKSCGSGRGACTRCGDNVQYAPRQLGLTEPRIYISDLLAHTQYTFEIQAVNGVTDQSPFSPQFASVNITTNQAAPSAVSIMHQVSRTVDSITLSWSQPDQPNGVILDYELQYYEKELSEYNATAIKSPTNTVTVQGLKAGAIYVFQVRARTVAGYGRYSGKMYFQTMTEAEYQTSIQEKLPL

T2: human EphA3 extracellular region-SEAP-His protein (human, UniProt P29320 21-541)
T2 construct: extracellular domain; also called hEphA3-SEAP-His
T2 sequence (looked up): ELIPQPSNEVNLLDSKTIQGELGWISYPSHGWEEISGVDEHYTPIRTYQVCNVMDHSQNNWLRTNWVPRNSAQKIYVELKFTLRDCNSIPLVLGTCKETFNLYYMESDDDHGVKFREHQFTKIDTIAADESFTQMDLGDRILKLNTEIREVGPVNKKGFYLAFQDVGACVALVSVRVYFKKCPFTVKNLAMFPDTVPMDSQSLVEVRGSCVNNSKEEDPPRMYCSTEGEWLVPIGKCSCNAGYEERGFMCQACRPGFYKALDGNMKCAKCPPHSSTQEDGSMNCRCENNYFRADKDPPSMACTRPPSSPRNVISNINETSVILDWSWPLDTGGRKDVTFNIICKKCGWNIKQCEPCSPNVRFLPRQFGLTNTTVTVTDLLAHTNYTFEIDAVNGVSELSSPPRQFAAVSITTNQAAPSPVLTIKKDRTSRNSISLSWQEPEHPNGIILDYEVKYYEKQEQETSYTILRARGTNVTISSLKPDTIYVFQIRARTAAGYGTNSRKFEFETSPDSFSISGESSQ

T3: human EphB3 extracellular region-SEAP-His protein (human, UniProt P54753 34-559)
T3 construct: extracellular domain; also called hEphB3-SEAP-His
T3 sequence (looked up): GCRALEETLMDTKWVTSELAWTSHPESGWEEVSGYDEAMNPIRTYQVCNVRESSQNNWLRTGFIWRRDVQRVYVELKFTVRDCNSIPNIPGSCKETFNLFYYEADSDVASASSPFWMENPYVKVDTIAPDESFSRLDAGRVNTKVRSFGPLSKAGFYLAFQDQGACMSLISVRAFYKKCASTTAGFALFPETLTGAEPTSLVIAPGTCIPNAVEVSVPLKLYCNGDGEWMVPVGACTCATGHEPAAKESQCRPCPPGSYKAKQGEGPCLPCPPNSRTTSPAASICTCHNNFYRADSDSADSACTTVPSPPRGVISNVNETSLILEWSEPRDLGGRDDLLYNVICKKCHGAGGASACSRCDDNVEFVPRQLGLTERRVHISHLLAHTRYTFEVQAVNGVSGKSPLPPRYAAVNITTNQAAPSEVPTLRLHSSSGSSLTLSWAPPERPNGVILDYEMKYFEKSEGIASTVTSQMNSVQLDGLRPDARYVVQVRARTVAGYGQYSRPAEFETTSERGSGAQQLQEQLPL

T4: human EphA1 extracellular region-SEAP-His protein (human, UniProt P21709 26-547)
T4 construct: extracellular domain; also called hEphA1-SEAP-His
T4 sequence (looked up): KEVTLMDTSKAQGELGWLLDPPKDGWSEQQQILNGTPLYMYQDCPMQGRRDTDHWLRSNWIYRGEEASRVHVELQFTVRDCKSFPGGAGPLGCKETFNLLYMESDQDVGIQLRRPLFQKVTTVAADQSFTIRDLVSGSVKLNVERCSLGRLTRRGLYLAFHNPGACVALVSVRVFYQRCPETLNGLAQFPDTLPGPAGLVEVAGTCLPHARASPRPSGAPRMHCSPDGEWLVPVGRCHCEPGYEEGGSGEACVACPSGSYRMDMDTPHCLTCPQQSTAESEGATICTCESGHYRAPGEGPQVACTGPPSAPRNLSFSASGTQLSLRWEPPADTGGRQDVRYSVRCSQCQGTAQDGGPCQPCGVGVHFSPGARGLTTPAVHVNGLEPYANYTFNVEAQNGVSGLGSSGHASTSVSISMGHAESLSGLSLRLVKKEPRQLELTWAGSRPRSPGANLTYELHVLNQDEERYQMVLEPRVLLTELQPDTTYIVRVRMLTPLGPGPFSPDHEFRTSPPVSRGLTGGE

B1: humanized antibody No. 77 (antibody, human IgG1, kappa)
heavy: QVQLVQSGSELKKPGASVKVSCKASGYTFTDYSMHWVRQAPGQGLEWMGWINTETGEPTYADDFKGRFVFSLDTSVSTAYLQISSLKAEDTAVYYCARIPLYYYGSRYWYFDVWGQGTTVTVSSASTKGPSVFPLAPSSKSTSGGTAALGCLVKDYFPEPVTVSWNSGALTSGVHTFPAVLQSSGLYSLSSVVTVPSSSLGTQTYICNVNHKPSNTKVDKRVEPKSCDKTHTCPPCPAPPAAAPSVFLFPPKPKDTLMISRTPEVTCVVVDVSHEDPEVQFNWYVDGVEVHNAKTKPREEQFNSTFRVVSVLTVVHQDWLNGKEYKCKVSNKGLPAPIEKTISKTKGQPREPQVYTLPPSREEMTKNQVSLTCLVKGFYPSDIAVEWESNGQPENNYKTTPPMLDSDGSFFLYSKLTVDKSRWQQGNVFSCSVMHEALHNHYTQKSLSLSPG
light: DIQMTQSPSSLSASVGDRVTITCRASENIYRNLAWYQQKPGKAPKLLVYAATNLADGVPSRFSGSGSGTDYTLTISSLQPEDFATYYCQHFWGTPWTFGQGTKVEIKRTVAAPSVFIFPPSDEQLKSGTASVVCLLNNFYPREAKVQWKVDNALQSGNSQESVTEQDSKDSTYSLSSTLTLSKADYEKHKVYACEVTHQGLSSPVTKSFNRGEC
notes: human Ig kappa; also called L1-4/HK1
B2: humanized antibody No. 89 (antibody, human IgG1, kappa)
heavy: B1 heavy with V2I, E46K, D62Q, D63G, K65T
light: B1 light with K45Q, V48L
notes: human Ig kappa; also called L1-6/HA4
B3: humanized antibody No. 84 (antibody, human IgG1, kappa)
heavy: B1 heavy
light: B1 light with V48L, P80S
notes: human Ig kappa; also called L1-5/HK1
B4: humanized antibody No. 85 (antibody, human IgG1, kappa)
heavy: B1 heavy with E46K
light: B1 light with V48L, P80S
notes: human Ig kappa; also called L1-5/HK2
B5: humanized antibody No. 81 (antibody, human IgG1, kappa)
heavy: B1 heavy with D62Q, D63G, K65T
light: B1 light with V48L, P80S
notes: human Ig kappa; also called L1-5/HA1
B6: humanized antibody No. 86 (antibody, human IgG1, kappa)
heavy: B1 heavy with V2I, E46K
light: B1 light with V48L, P80S
notes: human Ig kappa; also called L1-5/HK4
B7: humanized antibody No. 87 (antibody, human IgG1, kappa)
heavy: B1 heavy with D62Q, D63G, K65T
light: B1 light with K45Q, V48L
notes: human Ig kappa; also called L1-6/HA1
B8: humanized antibody No. 90 (antibody, human IgG1, kappa)
heavy: B1 heavy
light: B1 light with K45Q, V48L
notes: human Ig kappa; also called L1-6/HK1
B9: humanized antibody No. 83 (antibody, human IgG1, kappa)
heavy: B1 heavy with V2I, E46K, D62Q, D63G, K65T
light: B1 light with V48L, P80S
notes: human Ig kappa; also called L1-5/HA4
B10: humanized antibody No. 91 (antibody, human IgG1, kappa)
heavy: B1 heavy with E46K
light: B1 light with K45Q, V48L
notes: human Ig kappa; also called L1-6/HK2
B11: humanized antibody No. 78 (antibody, human IgG1, kappa)
heavy: B1 heavy with E46K
light: B1 light
notes: human Ig kappa; also called L1-4/HK2
B12: humanized antibody No. 92 (antibody, human IgG1, kappa)
heavy: B1 heavy with V2I, E46K
light: B1 light with K45Q, V48L
notes: human Ig kappa; also called L1-6/HK4
B13: humanized antibody No. 82 (antibody, human IgG1, kappa)
heavy: B1 heavy with E46K, D62Q, D63G, K65T
light: B1 light with V48L, P80S
notes: human Ig kappa; also called L1-5/HA2
B14: humanized antibody No. 88 (antibody, human IgG1, kappa)
heavy: B1 heavy with E46K, D62Q, D63G, K65T
light: B1 light with K45Q, V48L
notes: human Ig kappa; also called L1-6/HA2

Target: T5, human EphA5 extracellular region-SEAP-His protein (human, UniProt P54756 25-573)
T5 construct: extracellular domain; also called hEphA5-SEAP-His
T5 sequence (P54756 25-573): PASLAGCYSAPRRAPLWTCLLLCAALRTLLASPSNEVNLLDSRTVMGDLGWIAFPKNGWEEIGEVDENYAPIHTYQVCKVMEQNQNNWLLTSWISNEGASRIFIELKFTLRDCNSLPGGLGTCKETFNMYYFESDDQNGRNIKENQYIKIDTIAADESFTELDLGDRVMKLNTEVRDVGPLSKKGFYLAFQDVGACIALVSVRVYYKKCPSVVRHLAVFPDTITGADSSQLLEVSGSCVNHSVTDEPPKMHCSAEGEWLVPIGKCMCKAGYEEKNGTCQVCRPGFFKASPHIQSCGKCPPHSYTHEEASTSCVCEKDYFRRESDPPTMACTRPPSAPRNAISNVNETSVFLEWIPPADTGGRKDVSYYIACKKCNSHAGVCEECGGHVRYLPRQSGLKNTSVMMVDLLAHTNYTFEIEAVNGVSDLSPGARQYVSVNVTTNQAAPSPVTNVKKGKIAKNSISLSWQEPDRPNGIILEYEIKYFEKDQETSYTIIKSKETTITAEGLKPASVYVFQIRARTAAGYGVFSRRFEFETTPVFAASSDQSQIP
Assay: ELISA

A450 as % of hEphA4-SEAP-His	Binder
4.4%	B1
5.8%	B2
5%	B3
5%	B4
4.9%	B5
5.7%	B6
5.4%	B7
5.1%	B8
5.8%	B9
6.4%	B10
5.1%	B11
6.8%	B12
6.5%	B13
5.9%	B14

Target: T1, human EphB2 extracellular …
Assay: ELISA

A450 as % of hEphA4-SEAP-His	Binder
4.5%	B1
5.7%	B2
4.9%	B3
5.1%	B4
5%	B5
5.7%	B6
5.4%	B7
5.9%	B8
5.6%	B9
7%	B10
5.1%	B11
6.6%	B12
5.6%	B13
6%	B14

Target: SEAP-His (UniProt P05187 23-511)
Sequence (P05187 23-511): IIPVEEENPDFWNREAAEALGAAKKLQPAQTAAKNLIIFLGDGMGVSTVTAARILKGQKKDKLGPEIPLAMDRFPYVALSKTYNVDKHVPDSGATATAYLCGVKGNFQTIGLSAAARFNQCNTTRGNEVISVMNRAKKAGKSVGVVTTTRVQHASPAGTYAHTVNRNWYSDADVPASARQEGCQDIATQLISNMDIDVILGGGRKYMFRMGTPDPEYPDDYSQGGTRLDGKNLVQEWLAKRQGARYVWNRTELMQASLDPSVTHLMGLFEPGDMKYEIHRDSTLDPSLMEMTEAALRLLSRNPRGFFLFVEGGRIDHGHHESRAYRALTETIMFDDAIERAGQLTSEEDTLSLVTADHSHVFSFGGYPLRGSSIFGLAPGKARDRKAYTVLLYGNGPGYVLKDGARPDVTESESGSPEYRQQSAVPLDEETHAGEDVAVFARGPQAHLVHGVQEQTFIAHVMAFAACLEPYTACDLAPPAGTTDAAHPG
Assay: ELISA

A450 as % of hEphA4-SEAP-His	Binder
4.7%	B1
5.8%	B2
5.1%	B3
5.3%	B4
5%	B5
6.1%	B6
5.5%	B7
5.2%	B8
6.5%	B9
6.4%	B10
5.3%	B11
6.5%	B12
5.9%	B13
6.1%	B14

Target: T2, human EphA3 extracellular …
Assay: ELISA

A450 as % of hEphA4-SEAP-His	Binder
4.5%	B1
5.8%	B2
4.9%	B3
5.1%	B4
5%	B5
5.8%	B6
5.5%	B7
5.2%	B8
5.7%	B9
6.6%	B10
5.1%	B11
6.5%	B12
5.4%	B13
6%	B14

Target: T3, human EphB3 extracellular …
Assay: ELISA

A450 as % of hEphA4-SEAP-His	Binder
4.6%	B1
5.7%	B2
4.8%	B3
5.2%	B4
4.9%	B5
5.9%	B6
5.5%	B7
5.1%	B8
5.7%	B9
7%	B10
5.2%	B11
6.9%	B12
5.6%	B13
6.3%	B14

Target: T4, human EphA1 extracellular …
Assay: ELISA

A450 as % of hEphA4-SEAP-His	Binder
4.5%	B1
5.5%	B2
5.2%	B3
5%	B4
4.4%	B5
5.9%	B6
5.3%	B7
5.1%	B8
5.7%	B9
5.8%	B10
6.6%	B11
7%	B12
5.4%	B13
5.8%	B14
